Reference: publication PMC6584647, “Integrated NMR and cryo-EM atomic-resolution structure determination of a half-megadalton enzyme complex” (Nature Communications, 2019)

Target: the molecule itself
Assay: cryo-EM structure; single-particle cryo-EM map at 4.1 Å with tetrahedral symmetry imposed, refined jointly with MAS NMR and solution-NMR restraints (XPLOR-NIH, full dodecamer)

B1: aminopeptidase TET2 from Pyrococcus horikoshii (enzyme)
chain: MEVRNMVDYELLKKVVEAPGVSGYEFLGIRDVVIEEIKDYVDEVKVDKLGNVIAHKKGEGPKVMIAAHMDQIGLMVTHIEKNGFLRVAPIGGVDPKTLIAQRFKVWIDKGKFIYGVGASVPPHIQKPEDRKKAPDWDQIFIDIGAESKEEAEDMGVKIGTVITWDGRLERLGKHRFVSIAFDDRIAVYTILEVAKQLKDAKADVYFVATVQEEVGLRGARTSAFGIEPDYGFAIDVTIAADIPGTPEHKQVTHLGKGTAIKIMDRSVICHPTIVRWLEELAKKHEIPYQLEILLGGGTDAGAIHLTKAGVPTGALSVPARYIHSNTEVVDERDVDATVELMTKALENIHELKI
notes: TET2 aminopeptidase, Pyrococcus horikoshii, UniProt O59196; 353 residues (39 kDa) per subunit as printed; Dodecamer of 12 x 39 kDa (468 kDa), with two zinc ions in each active site; Samples carried various isotope labels (2H, 13C, 15N, methyl labelling); the cryo-EM sample was u-[2H,13C,15N]-labelled; No tag is mentioned; source: E. coli BL21(DE3), purified (heating to 85 °C, Resource Q, size …)
  stoichiometry N: 12
